Laboratory results published in patent publication US20250122242A1, “SELECTION SYSTEMS, PEPTIDES DETERMINED THEREWITH, AND METHODS OF USING SAME” (Wisconsin Alumni Research Foundation, priority 2023, published 2025).

Columns and labels:
Aβ42-T7n [1] = target: T1, Aβ42-T7n (UniProt P00573+P05067); settings: cyclo-CX6 library, seven rounds on Aβ42-T7n, deep sequencing
Description: Single colonies of host cells transformed with the appropriate selection plasmids were used to make overnight cultures in 2×YT with maintenance antibiotics. The overnight culture was diluted (1:100) into 4-5 mL DRM with maintenance antibiotics and incubated at 37° C. with shaking until the OD600 of the culture reached ˜0.5, upon which the expanded phage library was added at a titer of 1×10^6 pfu/mL. The culture was incubated at 37° C. with shaking overnight (13-18 h). The next day, the culture was centrifuged at 8,000 rcf for 2 min to obtain the supernatant containing phage. The collected phage was diluted into fresh host cell cultures (10 to 1,000-fold) for the next round of selection, while the rest was stored at 4° C. for downstream analysis. This process was repeated until a significant increase in phage propagation was observed compared with the parent library. Both positive and negative selection rounds were performed using this procedure.
Sample preparation. Phage stocks collected from the final rounds of library selection were first amplified using LY0145 and LY0146. The PCR product was purified, and adapters added using LY0147 and LY0148. […] The final PCR product was purified, and the concentration measured by Nanodrop. […]
High-throughput sequencing and data analysis. […] Sequencing reads were demultiplexed by UWBC and analyzed using custom-written Python scripts.

Aβ42-T7n [2] = target: T1, Aβ42-T7n; settings: for phage propagation activity (fitness) on Aβ42-T7n selection: clonal SP encoding the sequence
From the text: Therefore, we turned to a split-T7 RNA polymerase (T7 RNAP) reporter used to evolve proteins with improved soluble expression.^33 In our new selection, host E. coli express an aggregation-prone protein (APP) fused to the N-terminal half of split-T7 RNAP (T7n). When the APP-T7n fusion is translated, it misfolds due to the APP, preventing T7n from associating with the C-terminal half of split-T7 RNAP (T7c; FIG. 2A). If a SP-encoded inhibitor binds to and prevents APP aggregation, the fused T7n will remain folded and join with T7c to produce full-length T7 RNAP. The reconstituted T7 RNAP then transcribes gIII, which we place under control of the T7 promoter (PT7), producing pill and allowing the SP to reproduce (FIGS. 2A and 2B).
We used the SICLOPPS method to biosynthesize cyclic peptides that can be selected in E. coli.^15 In SICLOPPS, a precursor fusion consisting of the C-terminal half of the Ssp DnaE split intein, the peptide sequence to be cyclized, and the N-terminal half of the same split intein undergoes intein splicing after translation to produce head-to-tail cyclized peptides (FIG. 7).
Strain S206035 was used for plasmid cloning, amplification, and phage assays. Strain S220835 was used for SP cloning and plaque assays. Plasmids and SPs were cloned by USER assembly or blunt-end ligation. Competent cells were prepared and transformed using the TSS method. Phage propagation and plaque assays were performed as previously described.^54 Unless otherwise noted, phage propagation assays used an input of […] phage to infect a 2 mL culture of host cells.

Aβ42-GFP = Aβ42-GFP folding reporter fluorescence assay; format: cell-based, E. coli; settings: expressed from plasmid, 0.04 mM IPTG, compared with CKVWQLL (FIG. 3H)
Sequence of Aβ42-GFP (P05067 672-713): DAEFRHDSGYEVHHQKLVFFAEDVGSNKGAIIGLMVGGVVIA
Description: (§1) Single colonies of S2060s transformed with pBL066c and SICLOPPS plasmid were used to make overnight cultures in 2×YT with maintenance antibiotics. The overnight culture was diluted (1:100) into 1 mL DRM on a 96 deep-well plate (VWR, 75870-796) with maintenance antibiotics and IPTG (0, 0.04, 0.2, or 1 mM). The diluted culture was incubated at 37° C. with shaking for 2.5 h, after which aTc (200 ng/mL) was added. 100 μL of the culture was transferred onto a black clear-bottom 96-well plate (VWR, 89131-680) to measure fluorescence signal 2, 3, 5 h after addition of aTc. GFP fluorescence signal (excitation wavelength=485 nm, emission wavelength=535 nm) was then measured using a Tecan M Plex microplate reader.

E. coli = experiment: Growth (OD600) of cells expressing SICLOPPS precursors upon IPTG induction; settings: OD600, IPTG induction (FIG. 9B)
Description: Data reflects 3 biological replicates plotted as individual values.
as §1

T1 sequence (P05067+P00573 fused): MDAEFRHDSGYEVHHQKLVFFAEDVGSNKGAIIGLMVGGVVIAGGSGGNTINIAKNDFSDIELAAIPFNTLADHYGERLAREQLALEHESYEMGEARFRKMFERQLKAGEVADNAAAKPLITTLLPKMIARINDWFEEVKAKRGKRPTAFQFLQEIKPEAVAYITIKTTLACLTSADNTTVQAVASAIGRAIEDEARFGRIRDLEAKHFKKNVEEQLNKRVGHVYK

## CRVWCAR (cyclic; Circular) [cyclo-CRVWCAR]
Aβ42-T7n [1]
  share of total sequencing reads in final SP pool: ~65%
Aβ42-T7n [2]
  phage propagation activity (fitness) on Aβ42-T7n selection: robust propagation
Aβ42-GFP
  activity in Aβ42-GFP folding reporter assay: comparable activity to CKVWQLL

## CRVYQVL (cyclic; Circular) [cyclo-CRVYQVL]
E. coli
  effect of construct induction on cell growth: greatly decreased cell growth
Aβ42-T7n [2]
  phage propagation activity (fitness) on Aβ42-T7n selection: more modest fitness
Aβ42-GFP
  activity in Aβ42-GFP folding reporter assay: appeared inactive

## cyclo-CKVWQLL [CKVWQLL SP, reference compound]
Aβ42-T7n [2]; evolved SP (PACE 1 clone 2) (FIG. 2D)
  discrimination between active SP and scrambled control (phage propagation): ~300 fold
Aβ42-T7n [2]; parent SP, vs CVQWLKL SP (FIG. 8A)
  increase in phage proliferation compared to SP carrying scrambled control: ~500 fold
